For series [1], the system named is C[C@H](O)C(=O)O. Put plainly: purified protein. To be noted: NAD+. Format: biochemical, Babesia microti.
Series [2] concerns NC(=O)c1ccc[n+]([C@@H]2O[C@H](COP(=O)([O-])OP(=O)(O)OC[C@H]3O[C@@H](n4cnc5c(N)ncnc54)[C@H](O)[C@@H]3O)[C@@H](O)[C@H]2O)c1. Kind of series: purified protein. As to conditions: varied: cofactor.

The record followed here is publication PMC4125376.

“Babesia microti lactate dehydrogenase (BmLDH) (Babesia microti strain RI)”: the Michaelis-Menten constant (Km) worked out at 99.96 ± 22.33 mM in series [1] and 8.76 ± 0.57 mM in series [2].
